Experiments:
[1] = molecular target: POLE1 ISC mutant;POLE2;POLE3;POLE4 (human;human;human;human, UniProt Q07864;P56282;Q9NRF9;Q9NR33 1-2286;1-527;1-147;1-117, C651S;C654S|||); assay: EMSA; EMSA: 30 nM DNA, 30-120 nM protein; protein dilution buffer 25 mM Hepes pH 7.5, 100 mM NaCl, 10% glycerol, 0.5 mM EDTA, 1 mM DTT, 0.01% NP-40; 5x reaction buffer 175 mM Hepes pH 7.4, 100 mM NaCl, 10 mM DTT, 500 ug/ml BSA; on ice 20 min (legends: 15 min); native TBE gel at 4 C; settings: protein: recombinant;recombinant;recombinant;recombinant, tags: N-terminal streptavidin tag;;;, copies: 1;1;1;1
Chain of POLE1 ISC mutant;POLE2;POLE3;POLE4 (Q07864 whole entry C651S/C654S, chain 1 of 4): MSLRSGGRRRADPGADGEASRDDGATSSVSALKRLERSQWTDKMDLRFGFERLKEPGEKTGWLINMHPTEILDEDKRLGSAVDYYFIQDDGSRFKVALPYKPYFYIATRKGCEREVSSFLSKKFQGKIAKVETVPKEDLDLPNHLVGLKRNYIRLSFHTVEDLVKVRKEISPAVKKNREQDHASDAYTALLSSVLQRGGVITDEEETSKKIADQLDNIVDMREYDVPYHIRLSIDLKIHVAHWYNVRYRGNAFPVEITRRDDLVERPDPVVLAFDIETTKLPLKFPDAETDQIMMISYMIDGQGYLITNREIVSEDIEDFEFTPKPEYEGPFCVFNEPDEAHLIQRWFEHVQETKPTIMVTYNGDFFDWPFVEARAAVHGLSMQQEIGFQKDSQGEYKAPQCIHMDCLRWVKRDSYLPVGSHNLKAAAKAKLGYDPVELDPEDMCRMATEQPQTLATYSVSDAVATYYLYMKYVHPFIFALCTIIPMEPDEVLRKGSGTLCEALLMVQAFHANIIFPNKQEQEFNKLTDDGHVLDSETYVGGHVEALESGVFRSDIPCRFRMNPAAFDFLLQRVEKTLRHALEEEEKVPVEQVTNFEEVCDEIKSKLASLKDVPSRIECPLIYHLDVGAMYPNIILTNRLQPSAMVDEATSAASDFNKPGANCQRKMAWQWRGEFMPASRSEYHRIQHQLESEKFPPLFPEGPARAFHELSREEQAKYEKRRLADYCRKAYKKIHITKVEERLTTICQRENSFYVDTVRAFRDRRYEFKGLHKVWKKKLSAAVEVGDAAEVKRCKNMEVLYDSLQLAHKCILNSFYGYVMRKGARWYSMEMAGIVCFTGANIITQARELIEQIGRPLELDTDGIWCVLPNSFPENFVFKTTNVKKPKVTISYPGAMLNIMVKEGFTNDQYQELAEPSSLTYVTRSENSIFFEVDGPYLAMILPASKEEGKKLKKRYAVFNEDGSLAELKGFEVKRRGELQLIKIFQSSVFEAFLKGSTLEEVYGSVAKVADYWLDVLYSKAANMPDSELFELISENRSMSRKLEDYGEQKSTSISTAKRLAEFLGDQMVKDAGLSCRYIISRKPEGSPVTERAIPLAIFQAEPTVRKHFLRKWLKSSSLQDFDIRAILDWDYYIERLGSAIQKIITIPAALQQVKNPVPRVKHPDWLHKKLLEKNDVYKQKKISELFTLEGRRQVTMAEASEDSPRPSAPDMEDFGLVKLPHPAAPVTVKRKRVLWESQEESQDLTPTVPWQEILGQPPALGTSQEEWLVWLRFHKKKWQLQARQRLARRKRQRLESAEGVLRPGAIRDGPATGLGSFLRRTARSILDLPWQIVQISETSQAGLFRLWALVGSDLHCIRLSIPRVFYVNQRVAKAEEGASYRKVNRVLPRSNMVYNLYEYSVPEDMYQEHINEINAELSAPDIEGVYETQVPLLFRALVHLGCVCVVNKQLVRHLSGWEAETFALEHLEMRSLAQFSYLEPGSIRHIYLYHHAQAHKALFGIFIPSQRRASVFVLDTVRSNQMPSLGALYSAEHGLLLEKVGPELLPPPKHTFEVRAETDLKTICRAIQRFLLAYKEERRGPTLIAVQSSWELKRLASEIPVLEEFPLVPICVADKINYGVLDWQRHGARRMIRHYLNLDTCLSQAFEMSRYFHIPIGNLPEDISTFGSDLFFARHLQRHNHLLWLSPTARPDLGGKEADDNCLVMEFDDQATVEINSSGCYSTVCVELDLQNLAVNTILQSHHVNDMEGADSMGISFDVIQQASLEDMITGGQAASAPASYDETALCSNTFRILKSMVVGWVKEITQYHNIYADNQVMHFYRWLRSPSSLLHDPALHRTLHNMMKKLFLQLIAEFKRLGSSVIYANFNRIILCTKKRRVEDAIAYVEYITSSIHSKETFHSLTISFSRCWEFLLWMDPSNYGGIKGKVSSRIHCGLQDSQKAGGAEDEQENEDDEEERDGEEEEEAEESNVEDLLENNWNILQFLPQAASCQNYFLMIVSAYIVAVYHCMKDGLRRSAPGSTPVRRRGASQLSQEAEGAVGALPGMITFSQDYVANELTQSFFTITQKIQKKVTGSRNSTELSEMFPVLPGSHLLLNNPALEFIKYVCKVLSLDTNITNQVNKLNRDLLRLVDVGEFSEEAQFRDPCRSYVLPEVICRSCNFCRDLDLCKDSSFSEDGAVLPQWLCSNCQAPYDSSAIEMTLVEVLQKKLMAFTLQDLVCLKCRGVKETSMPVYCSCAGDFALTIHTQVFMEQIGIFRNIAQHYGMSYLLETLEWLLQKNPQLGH
Chain of POLE1 ISC mutant;POLE2;POLE3;POLE4 (P56282 whole entry, stated change not applied, chain 2 of 4): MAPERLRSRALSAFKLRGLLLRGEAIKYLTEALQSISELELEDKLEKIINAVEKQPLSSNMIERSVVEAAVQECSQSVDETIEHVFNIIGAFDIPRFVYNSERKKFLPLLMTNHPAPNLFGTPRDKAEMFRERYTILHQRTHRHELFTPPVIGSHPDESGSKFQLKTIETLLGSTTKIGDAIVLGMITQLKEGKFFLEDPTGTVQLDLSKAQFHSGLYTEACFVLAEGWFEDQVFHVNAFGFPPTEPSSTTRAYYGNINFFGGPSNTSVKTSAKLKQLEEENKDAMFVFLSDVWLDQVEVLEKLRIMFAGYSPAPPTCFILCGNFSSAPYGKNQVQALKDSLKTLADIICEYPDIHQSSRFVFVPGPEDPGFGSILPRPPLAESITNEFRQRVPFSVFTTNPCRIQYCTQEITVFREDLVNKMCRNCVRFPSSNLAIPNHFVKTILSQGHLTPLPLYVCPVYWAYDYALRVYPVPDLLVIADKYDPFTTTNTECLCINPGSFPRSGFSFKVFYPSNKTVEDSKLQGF
Chain of POLE1 ISC mutant;POLE2;POLE3;POLE4 (Q9NRF9 whole entry, stated change not applied, chain 3 of 4): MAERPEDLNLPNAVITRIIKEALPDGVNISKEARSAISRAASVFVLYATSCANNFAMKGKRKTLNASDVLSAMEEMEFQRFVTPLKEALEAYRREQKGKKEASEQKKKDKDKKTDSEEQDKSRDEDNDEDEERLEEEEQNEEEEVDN
Chain of POLE1 ISC mutant;POLE2;POLE3;POLE4 (Q9NR33 whole entry, stated change not applied, chain 4 of 4): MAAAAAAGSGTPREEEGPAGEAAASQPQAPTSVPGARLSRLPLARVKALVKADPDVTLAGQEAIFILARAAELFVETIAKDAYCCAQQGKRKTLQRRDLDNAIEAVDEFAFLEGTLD

[2] = molecular target: T1, POLE1 (Pol epsilon catalytic subunit);POLE2;POLE3;POLE4 DNA binding mutant (DB/DBM) (human;human;human;human, UniProt Q07864;P56282;Q9NRF9;Q9NR33 1-2286;1-527;1-147;1-117, |||A44L;R45D;K47E;K51E); assay: EMSA; binding abolished; EMSA: 30 nM DNA, 30-120 nM protein; protein dilution buffer 25 mM Hepes pH 7.5, 100 mM NaCl, 10% glycerol, 0.5 mM EDTA, 1 mM DTT, 0.01% NP-40; 5x reaction buffer 175 mM Hepes pH 7.4, 100 mM NaCl, 10 mM DTT, 500 ug/ml BSA; on ice 20 min (legends: 15 min); native TBE gel at 4 C; settings: protein: recombinant;recombinant;recombinant;recombinant; tags: N-terminal streptavidin tag;;;; copies: 1;1;1;1; label: 5' 6FAM on strand 1; blunt
T1 sequence (Q07864 whole entry, stated change not applied, chain 1 of 4): as the sequence (Q07864 whole entry C651S/C654S, chain 1 of 4) above, with S651C, S654C counted along it
T1 sequence (P56282 whole entry, stated change not applied, chain 2 of 4): as the sequence (P56282 whole entry, stated change not applied, chain 2 of 4) above
T1 sequence (Q9NRF9 whole entry, stated change not applied, chain 3 of 4): as the sequence (Q9NRF9 whole entry, stated change not applied, chain 3 of 4) above
T1 sequence (Q9NR33 whole entry A44L/R45D/K47E/K51E, chain 4 of 4): as the sequence (Q9NR33 whole entry, stated change not applied, chain 4 of 4) above, with A44L, R45D, K47E, K51E counted along it

[3] = molecular target: T1, POLE1 (Pol epsilon catalytic …); assay: EMSA; EMSA: 30 nM DNA, 30-120 nM protein; protein dilution buffer 25 mM Hepes pH 7.5, 100 mM NaCl, 10% glycerol, 0.5 mM EDTA, 1 mM DTT, 0.01% NP-40; 5x reaction buffer 175 mM Hepes pH 7.4, 100 mM NaCl, 10 mM DTT, 500 ug/ml BSA; on ice 20 min (legends: 15 min); native TBE gel at 4 C; settings: protein: recombinant;recombinant;recombinant;recombinant; tags: N-terminal streptavidin tag;;;; copies: 1;1;1;1; label: 5' 6FAM
[4] = molecular target: POLE1 (Pol epsilon catalytic subunit);POLE2 (human;human, UniProt Q07864;P56282 1-2286;1-527, |); assay: EMSA; without POLE3-POLE4; EMSA: 30 nM DNA, 30-120 nM protein; protein dilution buffer 25 mM Hepes pH 7.5, 100 mM NaCl, 10% glycerol, 0.5 mM EDTA, 1 mM DTT, 0.01% NP-40; 5x reaction buffer 175 mM Hepes pH 7.4, 100 mM NaCl, 10 mM DTT, 500 ug/ml BSA; on ice 20 min (legends: 15 min); native TBE gel at 4 C; settings: protein: recombinant;recombinant; tags: N-terminal streptavidin tag;; copies: 1;1; label: 5' 6FAM
Chain of POLE1 (Pol epsilon catalytic subunit);POLE2 (Q07864 whole entry, chain 1 of 2): as the sequence (Q07864 whole entry C651S/C654S, chain 1 of 4) above, with S651C, S654C counted along it
Chain of POLE1 (Pol epsilon catalytic subunit);POLE2 (P56282 whole entry, chain 2 of 2): as the sequence (P56282 whole entry, stated change not applied, chain 2 of 4) above

B1: EMSA dsDNA 49 bp (dsDNA)
DNA 1: AGCTACCATGCCTGCACGAATTAAGCAATTCGTAATCATGGTCATAGCT
DNA 2: AGCTATGACCATGATTACGAATTGCTTAATTCGTGCAGGCATGGTAGCT
B1: binds ([1]; label: 5' 6FAM on strand 1, blunt); no binding [2].

AGCTACCATGCCTGCACGAATTAAGCAATTCGTAATCATGGTCATAGCT (ssDNA) [EMSA ssDNA 49-mer]: binds [3]; binds ([1]; label: 5' 6FAM); binds [4].

B2: EMSA leading strand fork (dsDNA)
DNA 1: B1 DNA 1
DNA 2: CTACAGTTCGTCAGGATTCC
DNA 3: AGCTATGACCATGATTACGAATTGCTTGGAATCCTGACGAACTGTAG
B2: binds ([1]; label: 5' 6FAM on strand 1, fork 1:3 (27 bp) 2:3 (20 bp), 22 nt 5' flap on strand 1).

Source: publication PMC12796321, “The genetic and biochemical basis of human leading strand synthesis”
